# T1: PBP1B R157A (E. coli, UniProt P02919 46-844, R157A)
# T1 construct: PBP1B, E. coli, residues 46-844, made by mutagenesis of pDML924; source: E. coli BL21(DE3), purified (membrane extract, HisTrap, thrombin, HiTrap SP ion exchange)
# T1 sequence (looked up): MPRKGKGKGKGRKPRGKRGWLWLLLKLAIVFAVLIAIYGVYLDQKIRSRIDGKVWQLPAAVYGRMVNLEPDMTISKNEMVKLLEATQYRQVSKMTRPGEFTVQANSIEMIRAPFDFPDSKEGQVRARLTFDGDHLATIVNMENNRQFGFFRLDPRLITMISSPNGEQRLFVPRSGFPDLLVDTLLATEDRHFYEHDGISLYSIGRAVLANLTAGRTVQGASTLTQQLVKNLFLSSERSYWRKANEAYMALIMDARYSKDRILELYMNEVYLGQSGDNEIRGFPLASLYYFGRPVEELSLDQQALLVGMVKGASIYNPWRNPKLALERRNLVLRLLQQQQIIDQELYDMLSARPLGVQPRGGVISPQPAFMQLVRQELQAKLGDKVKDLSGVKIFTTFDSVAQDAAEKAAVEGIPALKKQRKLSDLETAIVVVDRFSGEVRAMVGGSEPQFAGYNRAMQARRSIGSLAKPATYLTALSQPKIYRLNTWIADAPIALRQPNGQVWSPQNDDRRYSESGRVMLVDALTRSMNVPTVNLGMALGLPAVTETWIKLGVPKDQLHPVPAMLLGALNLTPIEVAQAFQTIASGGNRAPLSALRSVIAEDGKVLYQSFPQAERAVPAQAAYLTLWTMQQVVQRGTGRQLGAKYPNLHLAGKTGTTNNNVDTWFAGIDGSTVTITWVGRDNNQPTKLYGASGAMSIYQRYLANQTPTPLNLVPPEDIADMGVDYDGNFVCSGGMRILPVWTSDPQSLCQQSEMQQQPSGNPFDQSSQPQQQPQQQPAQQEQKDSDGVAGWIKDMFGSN
# Target: T1, PBP1B R157A
# Assay: SPR; PBP1B versions immobilised to the chip surface; CpoB versions injected from either 3.9 nM to 2 μM or from 78 nM to 40 μM; apparent KD by non-linear regression, at least three independent experiments
# Settings: both partners purified
binder,measurement,value
"CpoB (full length) (natural protein, E. coli, UniProt P45955 27-263, looked up, CpoB, E. coli; The coiled-coil construct begins at residue 27, so the purified 'full length' protein may lack the signal peptide (surmise); source: E. coli BL21(DE3), purified (HisTrap, Superdex 200), as in Gray et al. 2015) QAPISSVGSGSVEDRVTQLERISNAHSQLLTQLQQQLSDNQSDIDSLRGQIQENQYQLNQVVERQKQILLQIDSLSSGGAAAQSTSGDQSGAAASTTPTADAGTANAGAPVKSGNANTDYNAAIALVQDKSRQDDAMVAFQNFIKNYPDSTYLPNANYWLGQLNYNKGKKDDAAYYFASVVKNYPKSPKAADAMFKVGVIMQDKGDTAKAKAVYQQVISKYPGTDGAKQAQKRLNAM",Kd,147 nM

# Reference: paper PMC6220978, “Induced conformational changes activate the peptidoglycan synthase PBP1B” (Molecular Microbiology, 2018)
